According to patent US20030124117A1:
Like-named read-outs stand apart in the source and are kept apart here.

Columns and labels:
[1] = molecular target: truncated transmembrane tissue factor comprising residues 1-243, relipidated (human) (UniProt P13726); assay: cell-based or functional assay
[2] = molecular target: soluble tissue factor composed of the extracellular domain residues 1-219 of hTF (human) (UniProt P13726); assay: TF binding assay (ELISA on coated human soluble TF), ratio to chimeric F(ab) standard
[3] = molecular target: relipidated human tissue factor (Innovin) (human) (UniProt P13726); assay: cell-based or functional assay
[4] = molecular target: tissue factor on human J82 cells (human) (UniProt P13726); assay: cell-based or functional assay
[5] = molecular target: truncated transmembrane tissue factor comprising residues 1-243, relipidated (human) (UniProt P13726); assay: cell-based or functional assay; remark: listed apart in the source

Sequence of soluble tissue factor composed of the extracellular domain residues 1-219 of hTF (human) (P13726 33-251): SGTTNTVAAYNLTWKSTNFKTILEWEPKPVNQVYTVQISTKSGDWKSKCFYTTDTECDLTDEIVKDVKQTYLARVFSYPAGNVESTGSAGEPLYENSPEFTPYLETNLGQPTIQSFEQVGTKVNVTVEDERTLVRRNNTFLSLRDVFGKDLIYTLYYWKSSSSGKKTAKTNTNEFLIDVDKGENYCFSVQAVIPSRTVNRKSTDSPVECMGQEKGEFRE
Sequence of truncated transmembrane tissue factor comprising residues 1-243, relipidated (human) (P13726 33-275): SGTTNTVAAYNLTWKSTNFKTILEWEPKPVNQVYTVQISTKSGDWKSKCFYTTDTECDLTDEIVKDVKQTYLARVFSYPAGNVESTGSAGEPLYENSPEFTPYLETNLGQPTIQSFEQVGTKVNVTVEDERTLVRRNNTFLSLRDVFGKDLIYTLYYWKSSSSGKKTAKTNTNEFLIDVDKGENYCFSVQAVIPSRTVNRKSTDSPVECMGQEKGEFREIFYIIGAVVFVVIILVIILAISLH
Sequence of relipidated human tissue factor (Innovin) (human) (P13726 33-295 limits assumed): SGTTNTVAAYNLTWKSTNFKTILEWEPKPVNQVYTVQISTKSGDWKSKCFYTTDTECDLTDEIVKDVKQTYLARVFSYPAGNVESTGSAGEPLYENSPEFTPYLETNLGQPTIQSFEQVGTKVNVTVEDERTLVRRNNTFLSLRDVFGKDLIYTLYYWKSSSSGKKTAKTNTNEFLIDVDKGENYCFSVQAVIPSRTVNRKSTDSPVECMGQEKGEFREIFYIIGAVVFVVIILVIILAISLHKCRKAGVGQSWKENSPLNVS
Sequence of tissue factor on human J82 cells (human) (P13726 33-295): as the sequence (P13726 33-295 limits assumed) above

HTF1 antibody
concentration inhibiting the rate of FX activation in human plasma by 50% [1]: 150 µg/mL

chimeric D3 F(ab) with CDR-H2 Asp H65 changed to Gly (Fab)
fold reduction in binding against chimeric D3 F(ab) [2]: 14.2 fold

chimeric D3 F(ab) with CDR-H3 Thr96-Ala97-Ala98 changed to TF8 Asn96-Ser97-Tyr98 (Fab)
fold reduction in binding against chimeric D3 F(ab) [2]: 20.3 fold

B1: murine anti-TF antibody 5G6 (antibody, V domains shown)
VH: EVLLQQSGPELVKPGASVKIPCKASGYTFTEYNMDWVKQSHGKSLEWIGDINPNNGNTIYNQKFKGKATLTVDKSSTTAYLELRSLTSEDTAVYFCARDHDYYFDFWGQGTTLTVSS
VL: DIQMTQTPASQSASLGESVTITCLASQTIDTWLAWYQQKPGKSPQLLIYAATSLADGVPSRFSGSGSGTKFSFKISSLQAEDFVSYYCQQPYSSPYTFGGGTKLELKR
modifications: murine constant regions
antibody concentration prolonging the clotting time (PT) by 1.5-fold [3]: 27 µg/mL
IC50 of FPA generation, human ex-vivo blood flow system with J82 cells [4]: 50 µg/mL
concentration inhibiting the rate of FX activation in human plasma by 50% [5]: 15.5 µg/mL
